Target: clotting factor VIII (human) (UniProt P00451)
Experiment: cell-based or functional assay

Sequence of UniProt P00451 (P00451 20-2351): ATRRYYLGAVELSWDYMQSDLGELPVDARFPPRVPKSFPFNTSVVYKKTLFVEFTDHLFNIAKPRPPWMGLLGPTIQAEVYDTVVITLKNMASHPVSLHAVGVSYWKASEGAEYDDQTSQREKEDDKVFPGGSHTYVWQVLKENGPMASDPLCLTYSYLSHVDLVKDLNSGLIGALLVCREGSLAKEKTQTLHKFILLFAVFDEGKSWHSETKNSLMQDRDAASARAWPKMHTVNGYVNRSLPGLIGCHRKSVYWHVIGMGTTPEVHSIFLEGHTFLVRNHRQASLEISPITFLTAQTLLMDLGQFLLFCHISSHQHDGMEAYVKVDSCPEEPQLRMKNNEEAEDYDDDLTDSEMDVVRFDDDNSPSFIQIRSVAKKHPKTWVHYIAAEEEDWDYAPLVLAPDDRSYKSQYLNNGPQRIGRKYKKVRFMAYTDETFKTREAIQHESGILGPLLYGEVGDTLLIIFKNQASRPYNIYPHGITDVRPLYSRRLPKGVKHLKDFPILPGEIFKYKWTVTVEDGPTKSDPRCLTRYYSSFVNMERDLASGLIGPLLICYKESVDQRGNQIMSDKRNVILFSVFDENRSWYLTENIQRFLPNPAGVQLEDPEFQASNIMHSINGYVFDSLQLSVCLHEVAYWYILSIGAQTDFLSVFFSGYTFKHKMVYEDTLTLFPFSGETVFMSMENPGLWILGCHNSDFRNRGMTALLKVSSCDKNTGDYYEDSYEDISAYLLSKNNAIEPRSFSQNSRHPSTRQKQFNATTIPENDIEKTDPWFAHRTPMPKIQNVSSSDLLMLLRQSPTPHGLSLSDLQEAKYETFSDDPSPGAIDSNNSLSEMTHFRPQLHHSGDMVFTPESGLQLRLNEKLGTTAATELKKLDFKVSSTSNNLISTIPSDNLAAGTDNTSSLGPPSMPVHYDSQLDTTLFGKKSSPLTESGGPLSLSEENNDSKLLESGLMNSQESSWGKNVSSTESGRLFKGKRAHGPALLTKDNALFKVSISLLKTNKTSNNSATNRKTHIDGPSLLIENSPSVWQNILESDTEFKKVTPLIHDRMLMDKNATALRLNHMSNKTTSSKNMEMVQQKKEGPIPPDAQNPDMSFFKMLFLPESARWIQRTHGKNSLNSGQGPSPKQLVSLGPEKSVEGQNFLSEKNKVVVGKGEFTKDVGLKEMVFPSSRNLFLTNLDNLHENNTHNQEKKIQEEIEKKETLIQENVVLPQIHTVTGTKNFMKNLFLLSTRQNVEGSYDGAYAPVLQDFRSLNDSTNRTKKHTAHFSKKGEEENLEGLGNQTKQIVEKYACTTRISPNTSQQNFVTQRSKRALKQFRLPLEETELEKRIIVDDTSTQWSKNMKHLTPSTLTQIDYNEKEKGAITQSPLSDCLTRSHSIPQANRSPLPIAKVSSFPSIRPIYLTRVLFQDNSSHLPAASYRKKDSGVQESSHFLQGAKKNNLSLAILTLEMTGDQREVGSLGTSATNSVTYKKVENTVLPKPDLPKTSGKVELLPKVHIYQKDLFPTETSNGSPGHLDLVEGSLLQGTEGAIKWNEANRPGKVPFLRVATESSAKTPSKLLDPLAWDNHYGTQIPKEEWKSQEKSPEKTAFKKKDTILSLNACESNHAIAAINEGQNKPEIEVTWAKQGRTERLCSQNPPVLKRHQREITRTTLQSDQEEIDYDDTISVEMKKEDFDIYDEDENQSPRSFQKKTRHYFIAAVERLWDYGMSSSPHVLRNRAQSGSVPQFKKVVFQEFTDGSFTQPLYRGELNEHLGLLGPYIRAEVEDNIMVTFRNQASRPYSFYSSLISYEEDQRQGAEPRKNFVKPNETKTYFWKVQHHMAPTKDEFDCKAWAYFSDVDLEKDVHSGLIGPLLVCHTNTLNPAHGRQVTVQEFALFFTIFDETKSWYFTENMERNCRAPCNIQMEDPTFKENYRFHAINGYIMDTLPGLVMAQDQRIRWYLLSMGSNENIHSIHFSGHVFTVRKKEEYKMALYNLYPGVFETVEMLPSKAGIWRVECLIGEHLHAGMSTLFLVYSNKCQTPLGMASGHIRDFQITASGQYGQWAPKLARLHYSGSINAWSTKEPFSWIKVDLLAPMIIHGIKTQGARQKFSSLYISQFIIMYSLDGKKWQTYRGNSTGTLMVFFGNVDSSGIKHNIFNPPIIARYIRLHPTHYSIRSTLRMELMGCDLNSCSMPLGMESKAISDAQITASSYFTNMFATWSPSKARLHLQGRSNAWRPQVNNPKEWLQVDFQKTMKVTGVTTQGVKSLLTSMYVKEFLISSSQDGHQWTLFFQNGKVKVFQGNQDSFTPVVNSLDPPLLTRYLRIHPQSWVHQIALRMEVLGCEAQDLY

With “murine monoclonal anti-FVIII antibody ESH8 (American Diagnostica)” the FVIII activity of normal plasma after adding ESH8 (% of its initial activity) was 32.6 and the FVIII activity of normal plasma after adding ESH8 (% of the initial activity) was 23.5.
